Results taken from US20180265577A1 (Eli Lilly, published 2018).

Assays:
recombinant tau (rTau) [1] = target: T1, recombinant tau (rTau) (UniProt P10636-8 1-441, limits assumed); assay: direct ELISA, rTau coated at high (1 ug/mL) against low (15 ng/mL) concentration
T1 construct: Coated at 'high' (1 ug/mL, simulates aggregated tau) or 'low' (15 ng/mL, simulates tau monomer) concentration; also called rTau Monomer
Procedure: (§1) 3690) at a concentration corresponding to 0.7 μg/ml of total tau. Plates are incubated overnight at 4° C., then washed three times with 150 μl of PBST (PBS containing 0.05% Tween-20), blocked in 100 μl BB3 (ImmunoChemistry Technology, p/n. 643) at room temperature for at least 1 hr (usually 2 hrs). Following blocking, the blocking buffer is removed from the wells. Exemplified tau monoclonal antibody of Example 1 and a humanized MC-1 antibody construct (having the framework combination: 5-51 heavy-chain, A27 light-chain) are diluted in 0.25% casein buffer to 1000 nM stock, then diluted serially 23 times with two fold dilutions. […] Reaction is stopped by adding 50 μl stop solution (2N H2SO4) and colorimetric signal is measured at 450 nm. […]
(§2) Selectivity of tau monoclonal antibody of Example 1 to tau aggregates versus tau monomer is determined by direct ELISA. […] The plates, coated with high or low concentrations of rTau, respectively, are exposed to exemplified tau monoclonal antibody of Example 1 and binding of exemplified tau monoclonal antibody to the respective concentrations of rTau is measured substantially as described in the ELISA assay above.

[2] = target: T2, tau aggregates in sarkosyl-insoluble brain homogenate preps of 4.5 to 5 month old P301S mice; assay: cell-based or functional assay
recombinant tau (rTau) [3] = target: T1, recombinant tau (rTau); assay: direct ELISA on rTau coated at 15 ng/ml; antibody stored 4 weeks at pH 6, 4 C; Study 2
Procedure: (§3) Formulated samples are incubated for four weeks at 4° C. or 40° C. in an accelerated degradation study. Following incubation, binding affinity of the exemplified tau monoclonal antibody of Example 1 to rTau (15 ng/ml) coated on 96-well plates is determined by direct ELISA following the ELISA procedure substantially as described above.

recombinant tau (rTau) [4] = target: T1, recombinant tau (rTau); assay: direct ELISA on rTau coated at 15 ng/ml; antibody stored 4 weeks at pH 4, 40 C; Study 2
Procedure: as §3

[5] = target: T3, human monomeric (native or non-aggregate) tau (human, UniProt P10636 2-758); assay: SPR (Biacore 2000), antibody captured on protein A, tau as analyte, steady state fit
T3 construct: Full-length human tau in monomeric state; analyte in SPR; also called Monomeric Tau; monomeric tau
Procedure: (§4) Surface Plasmon Resonance (SPR) assay, measured with a BIACORE® 2000 instrument (primed with HBS-EP+ running buffer (GE Healthcare, 10 mM Hepes pH7.4+150 mM NaCl+3 mM EDTA+0.05% surfactant P20) at 25° C.), is used to measure binding of exemplified tau monoclonal antibody of Example 1 to both human monomeric (e.g., native or non-aggregate) tau and human tau aggregates (both having the amino acid sequence as set forth in SEQ ID NO:13). Binding of humanized MC-1 antibody construct (having the framework combination: 5-51 heavy-chain, A27 light-chain) to human monomeric tau and human tau aggregate is measured in the same manner.
(§5) Except as noted, all reagents and materials are from BIACORE® AB (Upsala, Sweden). A CMS chip containing immobilized protein A (generated using standard NHS-EDC amine coupling) on all four flow cells (FC) is used to employ a capture methodology. […]
(§6) Data of binding to tau aggregate is processed using standard double-referencing and fit to a 1:1 binding model using Biacore 2000 Evaluation software, version 4.1, to determine the association rate (kₒₙ, M⁻¹ s⁻¹ units), dissociation rate (koff, s⁻¹ units), and Rₘₐₓ (RU units). The equilibrium dissociation constant (KD) was calculated from the relationship KD=koff/kₒₙ, and is in molar units. Data of binding to monomeric tau cannot be determined accurately by SPR as described above due to rapid on- and off-rates. […]

recombinant tau (rTau) [6] = target: T1, recombinant tau (rTau); assay: direct ELISA, rTau coated at 'Low' concentration (15 ng/mL), simulates tau monomer
Procedure: as §1, §2

recombinant tau (rTau) [7] = target: T1, recombinant tau (rTau); assay: direct ELISA on rTau coated at 15 ng/ml; antibody stored 4 weeks at pH 4, 40 C; Study 1
Procedure: as §3

[8] = target: T2, tau aggregates in sarkosyl-insoluble …; assay: cell-based or functional assay; remark: listed apart in the source
[9] = target: T4, purified tau fibrils from AD brain homogenates (human, UniProt P10636-8 2-441, limits assumed); assay: direct ELISA on coated purified AD tau fibrils (0.7 ug/ml total tau)
T4 construct: Native brain-derived aggregated tau, coated at 0.7 ug/ml total tau; also called Purified AD Tau Fibrils; aggregate tau fibrils from AD brain homogenates
Procedure: (§7) Purified tau fibrils (50 μl) in PBS are coated on wells of 96-well plates (Coastar, p/n. 3690) at a concentration corresponding to 0.7 μg/ml of total tau. Plates are incubated overnight at 4° C., then washed three times with 150 μl of PBST (PBS containing 0.05% Tween-20), blocked in 100 μl BB3 (ImmunoChemistry Technology, p/n. 643) at room temperature for at least 1 hr (usually 2 hrs). Following blocking, the blocking buffer is removed from the wells. Exemplified tau monoclonal antibody of Example 1 and a humanized MC-1 antibody construct (having the framework combination: 5-51 heavy-chain, A27 light-chain) are diluted in 0.25% casein buffer to 1000 nM stock, then diluted serially 23 times with two fold dilutions. 50 μl of stock and serially diluted antibody (either exemplified tau monoclonal of Example 1 or humanized MC-1 antibody construct) are added to separate wells and incubated for 2 hours at room temperature, after which the plate is washed four times with 200 μl PBST per well. 50 μl of anti-human IgG-HRP antibodies (diluted at 1:4000 into 0.25% casein buffer) is added and incubated for 1 hour at room temperature, after which the plate is washed with 200 μl PBST per well 4 times. 50 μl of TMB/H2O2 is added and incubated at room temperature for about 10 minutes. Reaction is stopped by adding 50 μl stop solution (2N H2SO4) and colorimetric signal is measured at 450 nm. […]

recombinant tau (rTau) [10] = target: T1, recombinant tau (rTau); assay: direct ELISA, rTau coated at 'High' concentration (1 ug/mL), simulates aggregated tau
Procedure: as §1, §2

recombinant tau (rTau) [11] = target: T1, recombinant tau (rTau); assay: direct ELISA on rTau coated at 15 ng/ml; antibody stored 4 weeks at pH 6, 40 C; Study 2
Procedure: as §3

human tau aggregates [12] = target: T5, human tau aggregates (human, UniProt P10636 2-758); assay: SPR (Biacore 2000), antibody captured on protein A, tau aggregate as analyte, 1:1 fit
T5 construct: analyte in SPR; also called fibril tau; tau fibril aggregate
Procedure: as §4, §5, §6

human tau aggregates [13] = target: T5, human tau aggregates; assay: SPR (Biacore 2000), antibody captured on protein A, tau aggregate as analyte, 1:1 fit; not normalized for avidity
Procedure: as §4, §5, §6

recombinant tau (rTau) [14] = target: T1, recombinant tau (rTau); assay: direct ELISA on rTau coated at 15 ng/ml; antibody stored 4 weeks at pH 6, 4 C; Study 1
Procedure: as §3

recombinant tau (rTau) [15] = target: T1, recombinant tau (rTau); assay: direct ELISA on rTau coated at 15 ng/ml; antibody stored 4 weeks at pH 6, 40 C; Study 1
Procedure: as §3

[16] = target: T4, purified tau fibrils from AD brain …; assay: direct ELISA on coated purified AD tau fibrils
Procedure: as §7

T1 sequence (P10636 other isoform, or with tags, fused parts or gaps limits assumed): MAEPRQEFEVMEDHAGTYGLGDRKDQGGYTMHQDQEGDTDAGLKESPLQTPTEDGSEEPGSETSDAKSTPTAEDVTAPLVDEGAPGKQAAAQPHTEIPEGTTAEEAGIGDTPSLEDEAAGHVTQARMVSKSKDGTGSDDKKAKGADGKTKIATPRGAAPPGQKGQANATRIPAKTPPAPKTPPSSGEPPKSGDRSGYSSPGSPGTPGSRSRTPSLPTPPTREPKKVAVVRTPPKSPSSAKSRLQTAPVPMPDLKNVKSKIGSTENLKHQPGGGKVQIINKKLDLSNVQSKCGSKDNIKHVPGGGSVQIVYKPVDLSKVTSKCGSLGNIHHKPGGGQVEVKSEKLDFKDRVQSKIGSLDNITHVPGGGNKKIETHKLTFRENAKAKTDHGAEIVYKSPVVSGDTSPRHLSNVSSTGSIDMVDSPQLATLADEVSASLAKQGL
T5 sequence (P10636 other isoform, or with tags, fused parts or gaps limits assumed): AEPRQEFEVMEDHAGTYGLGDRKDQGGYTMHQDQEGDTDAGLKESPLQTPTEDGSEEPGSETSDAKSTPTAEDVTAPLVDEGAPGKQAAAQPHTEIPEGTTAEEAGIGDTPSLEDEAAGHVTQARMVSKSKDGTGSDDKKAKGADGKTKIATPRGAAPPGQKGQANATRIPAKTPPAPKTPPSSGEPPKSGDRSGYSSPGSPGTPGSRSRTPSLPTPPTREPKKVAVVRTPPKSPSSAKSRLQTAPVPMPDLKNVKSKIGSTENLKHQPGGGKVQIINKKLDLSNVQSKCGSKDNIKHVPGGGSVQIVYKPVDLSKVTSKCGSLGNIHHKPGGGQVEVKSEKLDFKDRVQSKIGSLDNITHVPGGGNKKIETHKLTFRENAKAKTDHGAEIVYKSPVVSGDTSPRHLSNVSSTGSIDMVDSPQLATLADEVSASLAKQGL

fold improved affinity (as measured by EC50) to aggregate tau over monomeric tau (recombinant tau (rTau) [1]): 120 fold | fold improvement in the inhibition of induced tau aggregate propagation (against humanized MC-1 antibody construct) [2]: ~30 fold | EC50 (recombinant tau (rTau) [3]): 0.636 nM | EC50 (recombinant tau (rTau) [4]): 0.277 nM | Kd [5]: 235 nM | EC50 (recombinant tau (rTau) [6]): 0.723 nM | EC50 (recombinant tau (rTau) [7]): 0.414 nM | EC50 (representing inhibition of AT8-Positive Tau Aggregate propagation (ng/mL)) [8]: 16 ng/mL | EC50 [9]: 0.0068 nM | EC50 (recombinant tau (rTau) [10]): 0.006 nM | EC50 (recombinant tau (rTau) [11]): 0.667 nM | koff (human tau aggregates [12]): < 1e-05 s⁻¹ | kon (human tau aggregates [12]): 45900 M⁻¹ s⁻¹ | Kd (human tau aggregates [13]): < 0.22 nM | EC50 (recombinant tau (rTau) [14]): 0.926 nM | EC50 (recombinant tau (rTau) [15]): 0.754 nM | fold improved affinity (as measured by EC50) over humanized MC-1 antibody construct [16]: 60 fold
B1: exemplified tau monoclonal antibody of Example 1 (antibody, human IgG4 S228P, kappa, F234A L235A, V domains shown)
VH: EVQLVQSGAEVKKPGESLKISCKGSGYTFSNYWIEWVRQMPGKGLEWMGEILPGSDSIKYEKNFKGQVTISADKSISTAYLQWSSLKASDTAMYYCARRGNYVDDWGQGTLVTVSS
VL: EIVLTQSPGTLSLSPGERATLSCRSSQSLVHSNQNTYLHWYQQKPGQAPRLLIYKVDNRFSGIPDRFSGSGSGTDFTLTISRLEPEDFAVYYCSQSTLVPLTFGGGTKVEIKR
notes: Humanized IgG4 (HC framework 5-51), kappa LC (framework A27); expressed in CHO cells; Carries seven CDR changes relative to murine MC-1; also called exemplified engineered tau monoclonal antibody
